{"source": "patent US20260242448A1", "molecular_target": "S protein of the SARS-CoV-2 prototype strain on pseudo-virus (SARS-CoV-2 prototype strain) (UniProt P0DTC2)", "assay": "cell-based or functional assay"}
{"substance": "LY-CoV1404 (antibody)", "values": [{"measurement": "Neutralization activity (IC50) against pseudo-virus", "result": 1.19, "unit": "ng/mL"}]}
